The values below come from paper doi:10.1101/2023.12.21.572875, “Structure of the human systemic RNAi defective transmembrane protein 1 (hSIDT1) reveals the conformational flexibility of its lipid binding domain” (bioRxiv, 2024).

The data set concerns the molecule itself. The data set is described as follows: cryo-EM structure; single-particle cryo-EM of purified hSIDT1-GFP at 1 mg/ml in 0.5% digitonin, 25 mM Tris-HCl pH 7.5, 200 mM NaCl, with 100 uM fluorinated octyl-maltoside; no cholesterol or analogues; blotted at 18°C; C2 symmetry imposed.

B1: human systemic RNAi-defective transmembrane family member 1 (hSIDT1), full length, C-terminal GFP-Strep-tag-II fusion (natural protein, UniProt Q9NXL6 20-827, looked up)
chain: ASPGHPAKSPRQPPAPRRDPFDAARGADFDHVYSGVVNLSTENIYSFNYTSQPDQVTAVRVYVNSSSENLNYPVLVVVRQQKEVLSWQVPLLFQGLYQRSYNYQEVSRTLCPSEATNETGPLQQLIFVDVASMAPLGAQYKLLVTKLKHFQLRTNVAFHFTASPSQPQYFLYKFPKDVDSVIIKVVSEMAYPCSVVSVQNIMCPVYDLDHNVEFNGVYQSMTKKAAITLQKKDFPGEQFFVVFVIKPEDYACGGSFFIQEKENQTWNLQRKKNLEVTIVPSIKESVYVKSSLFSVFIFLSFYLGCLLVGFVHYLRFQRKSIDGSFGSNDGSGNMVASHPIAASTPEGSNYGTIDESSSSPGRQMSSSDGGPPGQSDTDSSVEESDFDTMPDIESDKNIIRTKMFLYLSDLSRKDRRIVSKKYKIYFWNIITIAVFYALPVIQLVITYQTVVNVTGNQDICYYNFLCAHPLGVLSAFNNILSNLGHVLLGFLFLLIVLRRDILHRRALEAKDIFAVEYGIPKHFGLFYAMGIALMMEGVLSACYHVCPNYSNFQFDTSFMYMIAGLCMLKLYQTRHPDINASAYSAYASFAVVIMVTVLGVVFGKNDVWFWVIFSAIHVLASLALSTQIYYMGRFKIDLGIFRRAAMVFYTDCIQQCSRPLYMDRMVLLVVGNLVNWSFALFGLIYRPRDFASYMLGIFICNLLLYLAFYIIMKLRSSEKVLPVPLFCIVATAVMWAAALYFFFQNLSSWEGTPAESREKNRECILLDFFDDHDIWHFLSATALFFSFLVLLTLDDDLDVVRRDQIPVF
modifications: lacks complex N-glycosylation; density for N-acetylglucosamine at the predicted N-glycosylation sites N57, N67, N83, N136, N282 (not modelled)
notes: human SIDT1 (systemic RNAi-defective transmembrane family member 1), full length, codon-optimized synthetic gene (GenScript); UniProt Q9NXL6 printed for the AlphaFold model used in model building; Homodimer with C2 symmetry; Not modelled in the structure: the first 40 residues, cytosolic loops CL1 and CL4, Q278-N286 and the C-terminal GFP; The native signal peptide may be removed in the mature …
In the case of B1, the “stoichiometry N” value amounted to 2.
